Legend:
[1] = target: T1, fibrinogen (Homo sapiens, UniProt P02671); assay: Solid-phase binding assay (ELISA), immobilized fibrinogen
T1 construct: purchased Enzyme Research Laboratories (South Bend, Ind.)
T1 sequence (P02671 20-644 isoform P02671-2 limits assumed): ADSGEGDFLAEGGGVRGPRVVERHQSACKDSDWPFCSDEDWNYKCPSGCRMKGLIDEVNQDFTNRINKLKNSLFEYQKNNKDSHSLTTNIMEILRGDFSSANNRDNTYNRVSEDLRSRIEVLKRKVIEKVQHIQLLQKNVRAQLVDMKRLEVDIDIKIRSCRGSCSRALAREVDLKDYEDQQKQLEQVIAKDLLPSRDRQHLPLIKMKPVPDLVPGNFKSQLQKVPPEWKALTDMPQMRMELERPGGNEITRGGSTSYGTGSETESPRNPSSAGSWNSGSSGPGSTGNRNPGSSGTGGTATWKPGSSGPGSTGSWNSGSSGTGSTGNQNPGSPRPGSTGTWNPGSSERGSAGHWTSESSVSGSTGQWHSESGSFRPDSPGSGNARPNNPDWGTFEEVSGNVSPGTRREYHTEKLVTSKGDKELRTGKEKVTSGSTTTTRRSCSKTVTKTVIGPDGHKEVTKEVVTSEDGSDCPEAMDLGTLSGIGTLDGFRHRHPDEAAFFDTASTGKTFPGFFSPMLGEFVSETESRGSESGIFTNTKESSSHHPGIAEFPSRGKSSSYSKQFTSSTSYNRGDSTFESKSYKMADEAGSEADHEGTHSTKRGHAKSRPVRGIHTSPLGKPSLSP
T1 sequence (P02675 31-491 partner): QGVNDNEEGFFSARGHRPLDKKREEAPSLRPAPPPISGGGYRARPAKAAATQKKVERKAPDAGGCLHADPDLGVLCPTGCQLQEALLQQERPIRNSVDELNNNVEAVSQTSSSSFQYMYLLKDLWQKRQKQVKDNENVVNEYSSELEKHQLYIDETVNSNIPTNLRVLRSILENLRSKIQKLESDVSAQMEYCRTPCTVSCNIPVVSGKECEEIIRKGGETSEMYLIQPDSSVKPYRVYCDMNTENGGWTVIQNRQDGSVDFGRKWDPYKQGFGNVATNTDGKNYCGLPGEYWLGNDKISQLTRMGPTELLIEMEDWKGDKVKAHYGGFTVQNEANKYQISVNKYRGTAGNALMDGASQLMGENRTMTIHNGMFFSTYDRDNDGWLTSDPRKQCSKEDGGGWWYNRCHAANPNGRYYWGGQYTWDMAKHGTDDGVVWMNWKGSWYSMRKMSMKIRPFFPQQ
T1 sequence (P02679 27-437 isoform P02679-2 partner limits assumed): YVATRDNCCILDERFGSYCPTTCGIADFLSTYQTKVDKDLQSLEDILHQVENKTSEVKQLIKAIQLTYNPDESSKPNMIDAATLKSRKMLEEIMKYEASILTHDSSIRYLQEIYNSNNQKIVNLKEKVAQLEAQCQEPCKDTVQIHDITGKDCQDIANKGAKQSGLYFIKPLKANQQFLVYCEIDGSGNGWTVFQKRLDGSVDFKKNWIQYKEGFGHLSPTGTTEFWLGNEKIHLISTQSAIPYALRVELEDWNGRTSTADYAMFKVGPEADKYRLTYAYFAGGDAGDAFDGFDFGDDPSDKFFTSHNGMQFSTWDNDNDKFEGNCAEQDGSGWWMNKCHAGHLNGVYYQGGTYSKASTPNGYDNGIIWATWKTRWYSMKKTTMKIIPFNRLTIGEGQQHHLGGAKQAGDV
Experimental: (§1) The interaction between thymosin β4 and fibrin(ogen) and its fragments in the presence or absence of FXIIIa was studies by ELISA using plastic microliter plates. Wells of microliter plates were coated overnight at […] with fibrinogen and fibrin at 10 μg/mL or with the recombinant fragments of 20 μg/ml, all in 0.1 M NaHCO3 buffer, pH 8.3. Fibrin was made by addition to the wells of a mixture containing 10 μg/mL fibrinogen 1 NIH u/ml thrombin and 400 u/ml aprotinin, followed by overnight incubation at +4° C. The wells were then blocked by incubation with Super Blocker (Pierce) at 37° C. for 1 h. Following washing with TBS containing 0.05% Tween-20 (TBS-Tween), the indicated concentrations of thymosin β4, FXIII, FXIIIa(Thr) and FXIIIa(Ca) were added to the wells and incubated for 2-2.5 h at 37° C. Bound (incorporated) thymosin β4 was detected by the reaction with rabbit anti-thymosin β4 serum and peroxidase-conjugated anti-rabbit IgG. A TMB Microwell Peroxidase Substrase was added to the wells, and the incorporated thymosin β4 was measured spectrophotometrically at 450 nm.

[2] = target: T2, αC-domain (residues Aα221-610) (Homo sapiens, UniProt P02671); assay: ELISA and kinetic analysis of incorporation into immobilized αC-domain; format: biochemical
T2 construct: human fibrinogen αC-domain (residues Aα221-610); made in house; host or cells: E. coli, pET20b expression vector
T2 sequence (P02671 240-629): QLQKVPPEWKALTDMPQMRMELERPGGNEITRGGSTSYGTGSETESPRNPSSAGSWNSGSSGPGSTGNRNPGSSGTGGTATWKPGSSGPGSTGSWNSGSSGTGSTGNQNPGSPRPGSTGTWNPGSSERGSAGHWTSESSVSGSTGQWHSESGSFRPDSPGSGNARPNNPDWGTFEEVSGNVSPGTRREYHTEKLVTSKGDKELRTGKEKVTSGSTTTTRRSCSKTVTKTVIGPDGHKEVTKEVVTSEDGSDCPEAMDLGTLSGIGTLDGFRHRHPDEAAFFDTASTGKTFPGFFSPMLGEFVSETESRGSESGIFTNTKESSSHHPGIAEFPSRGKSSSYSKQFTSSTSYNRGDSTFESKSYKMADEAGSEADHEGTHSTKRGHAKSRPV
Experimental: as §1
To analyze kinetics of the incorporation of thymosin β4 into different fibrin(ogen) fragments, they were immobilized onto the wells of microliter plates (as described above, except that the concentration of all fragments was 20 μg/mL) and incubated with several concentrations of thymosin β4 in the presence of 10 μg/L thrombin-activated factor XIIIa. The incubation mixtures were inhibited every 15 min during 1 hour of incubation by the addition of iodacetamide to final concentration 10 mM. Incorporated thymosin β4 at each time point was detected with rabbit anti-thymosin β4 serum as described above. The initial rates of the reaction of incorporation (V) at different concentrations of thymosin β4 were determined from the slopes of the reaction time course plots and expressed as tangent α=A450/t (min), where A450 represents absorbance at 450 nm in optical units (o.u) which is proportional to the amount of incorporated thymosin β4. […]

thymosin β4
factor XIIIa-mediated incorporation into immobilized fibrinogen (ELISA signal) ([1]; factor XIII activated by CaCl2): the signal substantially increased
non-covalent interaction with immobilized fibrinogen (ELISA signal) ([1]; thymosin β4 150 μg/mL (30 μm), absence of factor XIII or non-activated factor XIII): no significant non-covalent interaction
non-covalent interaction with αC-domain (ELISA) ([2]; non-activated factor XIII or without it): no significant non-covalent interaction
incorporation into immobilized αC-domain (ELISA) ([2]; presence of factor XIIIa): incorporated effectively
Km ([2]; thrombin-activated factor XIIIa, Lineweaver-Burk plot, read-out: apparent Michaelis constant (Km) for incorporation into the αC-domain): 17.6 ± 2.5 µM

From patent publication US20100204147A1, “Methods For Delivering Thymosin Beta 4, Analogues, Isoforms and Other Derivatives” (REGENERX BIOPHARMACEUTICALS, INC., priority 2003, published 2010)
